For assay [1], the target named is C13S-mutant rGlEB1 (G. lamblia). As to the kind of experiment: SEC; about 800 µg rGlEB1 in PBS on Superdex 75 10/300 GL; size markers 75, 29, 14 and 6 kDa; monomer to dimer. A general note: Size exclusion chromatography separates by hydrodynamic size, large species first.
Assay [2] has as its target C46S-mutant rGlEB1 (G. lamblia). Nature of the assay: SDS-PAGE of SEC fractions without DTT; fractions eluted from SEC separated by SDS-PAGE without DTT; shows disulfide-linked dimers only.
Assay [3] addresses full-length recombinant Giardia lamblia end-binding 1 protein, rGlEB1_(1–238) (G. lamblia). Nature of the assay: SEC; about 800 µg rGlEB1 in PBS on Superdex 75 10/300 GL; size markers 75, 29, 14 and 6 kDa; monomer to dimer.
For assay [4] the target is unchanged. Nature of the assay: SDS-PAGE of SEC fractions without DTT; fractions eluted from SEC separated by SDS-PAGE without DTT; shows disulfide-linked dimers only.
Assay [5] addresses truncated recombinant G. lamblia EB1, rGlEB1_(1–184) (CH domain and linker) (G. lamblia). As to the kind of experiment: SEC; about 800 µg rGlEB1 in PBS on Superdex 75 10/300 GL; size markers 75, 29, 14 and 6 kDa; monomer to dimer.

Broadly, the stoichiometry N is a count of units in the complex or per binding partner.

For C13S-mutant rGlEB1 (natural protein), in assay [1], the stoichiometry N came to 2.

Consider C46S-mutant rGlEB1 (natural protein), for which the stoichiometry N in assay [2] is 2.

As to “full-length recombinant Giardia lamblia end-binding 1 protein, rGlEB1_(1–238) (natural protein)”, the stoichiometry N in assay [3] and in assay [4] was 2 in each case.

In the case of “truncated recombinant G. lamblia EB1, rGlEB1_(1–184) (CH domain and linker) (domain or fragment)”, the stoichiometry N in assay [5] turned out to be 2.

The values above are taken from PMC4020936.
